This assay deals with T1, oligohistidine-tagged PBP1B (E. coli, UniProt P02919 1-844).
T1 construct: PBP1B, bifunctional peptidoglycan synthase (glycosyltransferase and DD-transpeptidase) of Escherichia coli; source: purified
T1 sequence (looked up): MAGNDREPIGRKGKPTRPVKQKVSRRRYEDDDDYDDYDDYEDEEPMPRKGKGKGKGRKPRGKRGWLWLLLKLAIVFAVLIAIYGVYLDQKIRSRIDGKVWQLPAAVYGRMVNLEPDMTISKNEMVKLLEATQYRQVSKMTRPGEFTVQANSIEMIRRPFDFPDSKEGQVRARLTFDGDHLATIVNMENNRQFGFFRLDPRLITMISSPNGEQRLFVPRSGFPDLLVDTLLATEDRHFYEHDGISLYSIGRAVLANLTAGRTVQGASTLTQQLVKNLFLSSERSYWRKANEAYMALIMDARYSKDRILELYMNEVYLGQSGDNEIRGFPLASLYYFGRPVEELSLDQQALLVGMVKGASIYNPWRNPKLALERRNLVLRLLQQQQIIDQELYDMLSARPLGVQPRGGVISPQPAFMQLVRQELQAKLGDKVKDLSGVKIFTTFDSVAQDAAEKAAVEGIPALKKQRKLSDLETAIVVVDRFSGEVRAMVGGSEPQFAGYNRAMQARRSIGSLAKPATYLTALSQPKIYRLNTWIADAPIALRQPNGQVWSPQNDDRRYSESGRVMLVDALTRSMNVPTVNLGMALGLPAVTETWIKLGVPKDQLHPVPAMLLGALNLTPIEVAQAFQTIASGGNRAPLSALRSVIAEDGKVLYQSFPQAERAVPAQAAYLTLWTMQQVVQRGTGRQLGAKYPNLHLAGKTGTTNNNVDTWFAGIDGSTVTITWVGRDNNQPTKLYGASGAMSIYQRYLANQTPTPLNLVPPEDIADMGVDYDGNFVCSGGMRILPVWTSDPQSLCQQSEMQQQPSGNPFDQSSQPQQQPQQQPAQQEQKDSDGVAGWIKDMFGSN
Description: MST; microscale thermophoresis curves; means ± SD from three independent experiments; which partner was labelled is not told (Text S1). As to conditions: both partners purified. On the technique in general: Microscale thermophoresis detects binding through changes in fluorescence in a small temperature gradient.

B1: LdtD (LD-transpeptidase, formerly YcbB), untagged (enzyme, E. coli, UniProt P22525 1-615, looked up)
chain: MLLNMMCGRQLSAISLCLAVTFAPLFNAQADEPEVIPGDSPVAVSEQGEALPQAQATAIMAGIQPLPEGAAEKARTQIESQLPAGYKPVYLNQLQLLYAARDMQPMWENRDAVKAFQQQLAEVAIAGFQPQFNKWVELLTDPGVNGMARDVVLSDAMMGYLHFIANIPVKGTRWLYSSKPYALATPPLSVINQWQLALDKGQLPTFVAGLAPQHPQYAAMHESLLALLCDTKPWPQLTGKATLRPGQWSNDVPALREILQRTGMLDGGPKITLPGDDTPTDAVVSPSAVTVETAETKPMDKQTTSRSKPAPAVRAAYDNELVEAVKRFQAWQGLGADGAIGPATRDWLNVTPAQRAGVLALNIQRLRLLPTELSTGIMVNIPAYSLVYYQNGNQVLDSRVIVGRPDRKTPMMSSALNNVVVNPPWNVPPTLARKDILPKVRNDPGYLESHGYTVMRGWNSREAIDPWQVDWSTITASNLPFRFQQAPGPRNSLGRYKFNMPSSEAIYLHDTPNHNLFKRDTRALSSGCVRVNKASDLANMLLQDAGWNDKRISDALKQGDTRYVNIRQSIPVNLYYLTAFVGADGRTQYRTDIYNYDLPARSSSQIVSKAEQLIR
notes: LdtD (formerly YcbB), LD-transpeptidase of Escherichia coli; Printed as 'untagged LdtD'; source: purified
For B1, binding was put at a Kd of 112 nM.

As a reminder, the Kd is the constant that tells how readily two partners part at equilibrium.

Source of the values: article PMC6428754, “Peptidoglycan Remodeling Enables Escherichia coli To Survive Severe Outer Membrane Assembly Defect” (mBio, 2019).
